# Substitutions are numbered along the chain they refer to.
# T1: FMC63-scFv linker peptide
# T1 construct: also called coating antigen B
# T1 peptide: TGSTSGSGKPGSGEGSTKG
# B1: mouse anti-FMC63-scFv monoclonal antibody 29E4B5 (antibody, mouse IgG1, kappa, V domains shown)
# VH: EVKLLQSGGGLVQPGGSLKLSCAASGIDFSRYWMSWVRRAPGKGLEWIGEINLDSSTKNYAPSLKDKFIISRDNAKNTLYLQMSKVRSEDTALYYCARNYVGMDYWGQGTSVTVSS
# VL: DIVLTQSPASLAVSLGQRATISCRASKSVSSSDYTYMHWYQQKPGQPPKLLIYLASNLESGVPARFSGSGSGTDFTLNIHPVEEEDAATYYCQHSRELPPTFGGGTKLEIKR
# notes: Hybridoma-derived antibody (culture supernatant, microscale purified, or protein A purified native lot), isotype IgG1, kappa; These are left out by the residue ranges; also called 29E4B5-1; 29E4B5-1 (Native)
# B2: reference anti-FMC63-scFv antibody (rec_mab3) (antibody, V domains shown)
# VH: B1 VH with L5V, Q6E, I27F, R39Q, K58I, A61T, N99R, V101D, G102A
# VL: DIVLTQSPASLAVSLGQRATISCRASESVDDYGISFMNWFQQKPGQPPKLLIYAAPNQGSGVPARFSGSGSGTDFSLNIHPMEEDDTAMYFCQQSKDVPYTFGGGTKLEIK
# notes: also called control anti-FMC63-scFv antibody
# B3: 29E4B5-1 (Recombinant) (antibody, V domains shown)
# VH: B1 VH
# VL: DIVLTQSPASLAVSLGQRATISCRASKSVSSSDYTYMHWYQQKPGQPPKLLIYLASNLESGVPARFSGSGSGTDFTLNIHPVEEEDAATYYCQHSRELPPTFGGGTKLEIK
# notes: also called recombinant 29E4B5 antibody
# Experiments:
# [1] = target: T2, Total human IgG (human); assay: indirect ELISA, purified native antibody at 31.25 ng/ml (1:32,000)
# T2 construct: also called coating antigen D
# Protocol: (§1) In the first (native) method, hybridoma cells (29E4B5) were cultured in low IgG culture medium in a roller bottle for 10 days. The supernatants were collected and protein A purified to obtain purified antibodies. The purified antibodies were analyzed for the ability to bind the FMC63-scFv protein and anti-CD19 CAR T cells using ELISA (Table 8).
# (§2) A: Recombinant FMC63-scFv protein B: […] (FMC63-scFv linker peptide)(SEQ ID NO: 6) C: His-tagged protein D: Total human IgG The titer was the highest dilution where the Signal/Blank (S/B) ratio was ≥2.1. OD₄₅₀ for Blank was the average of two technical replicates. The starting concentration was 1 mg/ml, and the corresponding dilution ratio was calculated based on the actual concentration.
# [2] = target: T3, Recombinant FMC63-scFv protein; assay: as above
# T3 construct: also called His-tagged single-chain variable fragment of mouse anti-human CD19 antibody FMC63; coating antigen A
# Protocol: as §1, §2
# [3] = target: T4, irrelevant His-tagged protein; assay: as above
# T4 construct: also called coating antigen C
# Protocol: as §1, §2
# [4] = target: T1, FMC63-scFv linker peptide; assay: as above
# Protocol: as §1, §2
# [5] = target: T2, Total human IgG; assay: indirect ELISA, purified native antibody at 250 ng/ml (1:4,000)
# Protocol: as §1, §2
# [6] = target: T3, Recombinant FMC63-scFv protein; assay: as above
# Protocol: as §1, §2
# [7] = target: T4, irrelevant His-tagged protein; assay: as above
# Protocol: as §1, §2
# [8] = target: T1, FMC63-scFv linker peptide; assay: as above
# Protocol: as §1, §2
# [9] = target: T5, anti-CD19 CAR comprising the anti-CD19 scFv of SEQ ID NO:1; assay: flow cytometry on anti-CD19 CAR T cells, dilution 1:100
# T5 construct: also called anti-CD19 chimeric antigen receptor; anti-CD19 CAR T cells
# Text: (§3) The 29E4B5 antibodies produced using the first or the second method were compared with a reference anti-FMC63-scFv antibody (rec_mab3) for the ability to bind to the anti-CD19 CAR T cells using flow cytometry. Both methods produced 29E4B5 antibodies with higher affinity to the anti-CD19 cells than rec_mab3, showing higher CAR positive percentage even at 1:6,400 dilutions (Table 9).
# [10] = target: T2, Total human IgG; assay: indirect ELISA, subclone culture supernatant on coated antigen
# [11] = target: T3, Recombinant FMC63-scFv protein; assay: as above
# [12] = target: T4, irrelevant His-tagged protein; assay: as above
# [13] = target: T1, FMC63-scFv linker peptide; assay: as above
# [14] = target: T2, Total human IgG; assay: indirect ELISA, purified native antibody at 15.62 ng/ml (1:64,000)
# Protocol: as §1, §2
# [15] = target: T3, Recombinant FMC63-scFv protein; assay: as above
# Protocol: as §1, §2
# [16] = target: T4, irrelevant His-tagged protein; assay: as above
# Protocol: as §1, §2
# [17] = target: T1, FMC63-scFv linker peptide; assay: as above
# Protocol: as §1, §2
# [18] = target: T2, Total human IgG; assay: indirect ELISA, purified native antibody at 62.50 ng/ml (1:16,000)
# Protocol: as §1, §2
# [19] = target: T3, Recombinant FMC63-scFv protein; assay: as above
# Protocol: as §1, §2
# [20] = target: T4, irrelevant His-tagged protein; assay: as above
# Protocol: as §1, §2
# [21] = target: T1, FMC63-scFv linker peptide; assay: as above
# Protocol: as §1, §2
# [22] = target: T2, Total human IgG; assay: indirect ELISA, purified native antibody at 125 ng/ml (1:8,000)
# Protocol: as §1, §2
# [23] = target: T3, Recombinant FMC63-scFv protein; assay: as above
# Protocol: as §1, §2
# [24] = target: T4, irrelevant His-tagged protein; assay: as above
# Protocol: as §1, §2
# [25] = target: T1, FMC63-scFv linker peptide; assay: as above
# Protocol: as §1, §2
# [26] = target: T2, Total human IgG; assay: indirect ELISA, purified native antibody at 1.95 ng/ml (1:512,000)
# Protocol: as §1, §2
# [27] = target: T3, Recombinant FMC63-scFv protein; assay: as above
# Protocol: as §1, §2
# [28] = target: T4, irrelevant His-tagged protein; assay: as above
# Protocol: as §1, §2
# [29] = target: T1, FMC63-scFv linker peptide; assay: as above
# Protocol: as §1, §2
# [30] = target: T2, Total human IgG; assay: indirect ELISA, purified native antibody at 3.90 ng/ml (1:256,000)
# Protocol: as §1, §2
# [31] = target: T3, Recombinant FMC63-scFv protein; assay: as above
# Protocol: as §1, §2
# [32] = target: T4, irrelevant His-tagged protein; assay: as above
# Protocol: as §1, §2
# [33] = target: T1, FMC63-scFv linker peptide; assay: as above
# Protocol: as §1, §2
# [34] = target: T2, Total human IgG; assay: indirect ELISA, purified native antibody at 7.81 ng/ml (1:128,000)
# Protocol: as §1, §2
# [35] = target: T3, Recombinant FMC63-scFv protein; assay: as above
# Protocol: as §1, §2
# [36] = target: T4, irrelevant His-tagged protein; assay: as above
# Protocol: as §1, §2
# [37] = target: T1, FMC63-scFv linker peptide; assay: as above
# Protocol: as §1, §2
# [38] = target: T5, anti-CD19 CAR comprising the anti-CD19 …; assay: flow cytometry on anti-CD19 CAR T cells, dilution 1:800
# Text: as §3
# [39] = target: T5, anti-CD19 CAR comprising the anti-CD19 …; assay: flow cytometry on anti-CD19 CAR T cells, dilution 1:200
# Text: as §3
# [40] = target: T5, anti-CD19 CAR comprising the anti-CD19 …; assay: flow cytometry on anti-CD19 CAR T cells, dilution 1:50
# Text: as §3
# [41] = target: T5, anti-CD19 CAR comprising the anti-CD19 …; assay: flow cytometry on anti-CD19 CAR T cells, dilution 1:400
# Text: as §3
# [42] = target: T2, Total human IgG; assay: indirect ELISA, purified native antibody at 1,000 ng/ml (1:1,000)
# Protocol: as §1, §2
# [43] = target: T3, Recombinant FMC63-scFv protein; assay: as above
# Protocol: as §1, §2
# [44] = target: T4, irrelevant His-tagged protein; assay: as above
# Protocol: as §1, §2
# [45] = target: T1, FMC63-scFv linker peptide; assay: as above
# Protocol: as §1, §2
# [46] = target: T5, anti-CD19 CAR comprising the anti-CD19 …; assay: flow cytometry on anti-CD19 CAR T cells, dilution 1:6400
# Text: as §3
# [47] = target: T2, Total human IgG; assay: indirect ELISA, purified native antibody; highest dilution with Signal/Blank >=2.1
# Protocol: as §1, §2
# [48] = target: T3, Recombinant FMC63-scFv protein; assay: as above
# Protocol: as §1, §2
# [49] = target: T4, irrelevant His-tagged protein; assay: as above
# Protocol: as §1, §2
# [50] = target: T1, FMC63-scFv linker peptide; assay: as above
# Protocol: as §1, §2
# [51] = target: T2, Total human IgG; assay: indirect ELISA, purified native antibody at 500 ng/ml (1:2,000)
# Protocol: as §1, §2
# [52] = target: T3, Recombinant FMC63-scFv protein; assay: as above
# Protocol: as §1, §2
# [53] = target: T4, irrelevant His-tagged protein; assay: as above
# Protocol: as §1, §2
# [54] = target: T1, FMC63-scFv linker peptide; assay: as above
# Protocol: as §1, §2
# [55] = target: T5, anti-CD19 CAR comprising the anti-CD19 …; assay: flow cytometry on anti-CD19 CAR T cells, dilution 1:3200
# Text: as §3
# [56] = target: T5, anti-CD19 CAR comprising the anti-CD19 …; assay: flow cytometry on anti-CD19 CAR T cells, dilution 1:1600
# Text: as §3
# T3 sequence (scFv, as listed by the source): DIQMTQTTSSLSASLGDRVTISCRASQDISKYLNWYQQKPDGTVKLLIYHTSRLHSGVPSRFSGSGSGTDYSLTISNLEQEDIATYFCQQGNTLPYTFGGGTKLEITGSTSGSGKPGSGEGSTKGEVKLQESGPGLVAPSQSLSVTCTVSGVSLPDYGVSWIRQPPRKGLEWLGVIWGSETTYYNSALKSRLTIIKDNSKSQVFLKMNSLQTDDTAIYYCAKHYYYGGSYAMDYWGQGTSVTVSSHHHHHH
binder,measurement,setting,value
B1,OD450,[1],0.076 OD450
same,OD450,[2],1.32 OD450
same,OD450,[3],0.059 OD450
same,OD450,[4],0.061 OD450
same,OD450,[5],0.079 OD450
same,OD450,[6],1.85 OD450
same,OD450,[7],0.054 OD450
same,OD450,[8],0.062 OD450
same,% CAR+,[9],69.2%
same,OD450 nm,[10],0.178 OD450
same,OD450 nm,[11],1.5 OD450
same,OD450 nm,[12],0.201 OD450
same,OD450 nm,[13],0.087 OD450
same,OD450,[14],0.067 OD450
same,OD450,[15],0.983 OD450
same,OD450,[16],0.088 OD450
same,OD450,[17],0.067 OD450
same,OD450,[18],0.071 OD450
same,OD450,[19],1.71 OD450
same,OD450,[20],0.051 OD450
same,OD450,[21],0.075 OD450
same,OD450,[22],0.069 OD450
same,OD450,[23],1.79 OD450
same,OD450,[24],0.057 OD450
same,OD450,[25],0.059 OD450
same,OD450,[26],0.076 OD450
same,OD450,[27],0.245 OD450
same,OD450,[28],0.085 OD450
same,OD450,[29],0.077 OD450
same,OD450,[30],0.073 OD450
same,OD450,[31],0.407 OD450
same,OD450,[32],0.084 OD450
same,OD450,[33],0.068 OD450
same,OD450,[34],0.064 OD450
same,OD450,[35],0.676 OD450
same,OD450,[36],0.06 OD450
same,OD450,[37],0.076 OD450
same,% CAR+,[38],67.6%
same,% CAR+,[39],67.9%
same,% CAR+,[40],70.1%
same,% CAR+,[41],67.6%
same,OD450,[42],0.073 OD450
same,OD450,[43],1.88 OD450
same,OD450,[44],0.059 OD450
same,OD450,[45],0.064 OD450
same,% CAR+,[46],60.5%
same,Titer,[47],< 1000 dilution (1:x)
same,Titer,[48],512000 dilution (1:x)
same,Titer,[49],< 1000 dilution (1:x)
same,Titer,[50],< 1000 dilution (1:x)
same,OD450,[51],0.08 OD450
same,OD450,[52],1.89 OD450
same,OD450,[53],0.059 OD450
same,OD450,[54],0.059 OD450
same,% CAR+,[55],62.9%
same,% CAR+,[56],67.9%
B2,% CAR+,[9],69.4%
same,% CAR+,[38],66.4%
same,% CAR+,[39],69.7%
same,% CAR+,[40],69.8%
same,% CAR+,[41],68.9%
same,% CAR+,[46],49.1%
same,% CAR+,[55],56.6%
same,% CAR+,[56],62.2%
B3,% CAR+,[9],69.3%
same,% CAR+,[38],68%
same,% CAR+,[39],68.8%
same,% CAR+,[40],69.6%
same,% CAR+,[41],69.1%
same,% CAR+,[46],58%
same,% CAR+,[55],62.5%
same,% CAR+,[56],65.9%

# — patent US20230103885A1 (CRISPR THERAPEUTICS, published 2023)
